Patent US5849890
pKd: −log10 of the molar value.

Target: human chorionic gonadotropin (hCG) heterodimer (Homo sapiens) (UniProt P01215+P0DN86)
Assay: filter
Conditions: 2'-F all pyrimidines (RNA transcript of template)

human chorionic gonadotropin (hCG) heterodimer (Homo sapiens), sequence (P01215 25-116, chain 1 of 2, other chains not shown): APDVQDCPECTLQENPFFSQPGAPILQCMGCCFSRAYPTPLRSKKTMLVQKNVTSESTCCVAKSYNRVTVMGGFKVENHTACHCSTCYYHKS

Sequence | pKd (estimate, <1% bound at up to 80 uM) | binding (up to 40 uM hCG)
GGGAGACAAGAAUAAACGCUCAANNNNNNNNNNNNNNNNNNNNNNNNNNNNNNNNNNNNNNNNUUCGACAGGAGGCUCACAACAGGC [2'-F random 40N8 pool] | < 3.10 | –
GGGAGGACGAUGCGGNNNNNNNNNNNNNUUGAACGAUCCUUNNNNNNNNNNNNNCAGACGACUCGCCCGA [CG2N7 unselected pool] | – | < 1 % bound
